Data set [1] concerns Nap1 histone chaperone (a TTLL4 substrate protein).
Data set [2] addresses Nucleophosmin NPM1, wild type, full-length (UniProt P06748).
For data set [3], the system named is T1, NPM2 (embryonic NPM1 paralog).
T1 sequence (Q86SE8 1-214, species assumed, looked up): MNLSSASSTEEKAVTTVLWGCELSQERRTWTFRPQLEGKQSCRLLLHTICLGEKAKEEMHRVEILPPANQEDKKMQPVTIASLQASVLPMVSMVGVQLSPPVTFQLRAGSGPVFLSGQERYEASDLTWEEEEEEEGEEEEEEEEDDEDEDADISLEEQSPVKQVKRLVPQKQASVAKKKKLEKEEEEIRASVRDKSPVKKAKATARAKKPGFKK

Nucleophosmin NPM1, wild type, full-length, sequence (P06748 whole entry): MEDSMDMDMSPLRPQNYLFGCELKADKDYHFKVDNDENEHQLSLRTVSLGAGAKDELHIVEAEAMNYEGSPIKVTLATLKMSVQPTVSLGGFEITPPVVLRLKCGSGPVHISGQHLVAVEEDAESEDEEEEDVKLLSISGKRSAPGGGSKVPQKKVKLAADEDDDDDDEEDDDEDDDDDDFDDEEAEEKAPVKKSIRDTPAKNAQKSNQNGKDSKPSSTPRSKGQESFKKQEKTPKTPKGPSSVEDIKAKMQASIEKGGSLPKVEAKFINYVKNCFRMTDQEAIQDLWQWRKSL

In the case of “active human TTLL4 enzyme (Tubulin-Tyrosine Ligase Like 4), recombinant”, the “in vitro glutamate-glutamylation, immunoblot time course (FIG. 10)” value in the data set with NPM1c (AML-mutant NPM1) is “AML-mutant NPM1c is a better in vitro substrate for TTLL4 than the wildtype NPM1”. Besides, in data set [1], the in vitro glutamate-glutamylation result was “capable of catalyzing in vitro glutamate-glutamylation of Npm1, Npm2, and Nap1 histone chaperone substrates (not shown)”; the “kinase reaction, 32P-labeled phosphorylation (FIG. 7B)” value is given as “TTLL4 dependent 32P-labeled phosphorylation of Nap1 (a TTLL4 substrate protein)”. Further, in data set [2], the “glutamate-glutamylation of substrate (FIG. 2B)” value is “TTLL4 glutamylates full-length NPM1”; the in vitro glutamate-glutamylation entry is “capable of catalyzing in vitro glutamate-glutamylation of Npm1, Npm2, and Nap1 histone chaperone substrates (not shown)”; the “in vitro glutamate-glutamylation, immunoblot time course (FIG. 10)” value was “AML-mutant NPM1c is a better in vitro substrate for TTLL4 than the wildtype NPM1”. Also, the in vitro glutamate-glutamylation result in data set [3] is “capable of catalyzing in vitro glutamate-glutamylation of Npm1, Npm2, and Nap1 histone chaperone substrates (not shown)”.

For the origin of these results see US20250360126.
